T1: human G-CSF receptor (human, UniProt Q99062 25-836)
T1 sequence (looked up): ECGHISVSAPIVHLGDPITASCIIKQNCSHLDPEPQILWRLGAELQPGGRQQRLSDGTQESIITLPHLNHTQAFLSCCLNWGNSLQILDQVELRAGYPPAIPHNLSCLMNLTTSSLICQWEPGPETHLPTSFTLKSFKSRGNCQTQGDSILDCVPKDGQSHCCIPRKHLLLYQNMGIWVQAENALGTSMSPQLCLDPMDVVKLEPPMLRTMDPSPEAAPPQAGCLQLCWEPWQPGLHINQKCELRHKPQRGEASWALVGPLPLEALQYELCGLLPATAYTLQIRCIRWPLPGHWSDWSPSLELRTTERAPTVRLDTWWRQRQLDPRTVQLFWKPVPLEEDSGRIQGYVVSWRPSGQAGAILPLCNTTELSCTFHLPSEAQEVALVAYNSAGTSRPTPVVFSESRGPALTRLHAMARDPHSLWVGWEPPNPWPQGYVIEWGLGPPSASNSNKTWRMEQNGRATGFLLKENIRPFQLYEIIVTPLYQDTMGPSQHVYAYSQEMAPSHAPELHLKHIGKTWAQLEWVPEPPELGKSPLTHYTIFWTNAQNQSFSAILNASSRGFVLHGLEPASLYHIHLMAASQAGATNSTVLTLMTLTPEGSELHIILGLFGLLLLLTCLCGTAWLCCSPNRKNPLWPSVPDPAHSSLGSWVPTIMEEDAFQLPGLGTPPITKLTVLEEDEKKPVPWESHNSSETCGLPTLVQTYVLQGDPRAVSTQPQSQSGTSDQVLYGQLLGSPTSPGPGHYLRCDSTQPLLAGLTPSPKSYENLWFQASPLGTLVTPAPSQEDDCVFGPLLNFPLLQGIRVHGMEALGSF

B1: G-CSF variant K16/34/40R conjugated to SPA-PEG 20000 (ligand)
chain: TPLGPASSLPQSFLLRCLEQVRKIQGDGAALQERLCATYRLCHPEELVLLGHSLGIPWAPLSSCPSQALQLAGCLSQLHSGLFLYQGLLQALEGISPELGPTLDTLQLDVADFATTIWQQMEELGMAPALQPTQGAMPAFASAFQRRAGGVLVASHLQSFLEVSYRVLRHLAQP
modifications: conjugated to SPA-PEG 20000
B2: G-CSF variant K16/34/40R Q90K T105K conjugated to SPA-PEG 20000 (ligand)
chain: TPLGPASSLPQSFLLRCLEQVRKIQGDGAALQERLCATYRLCHPEELVLLGHSLGIPWAPLSSCPSQALQLAGCLSQLHSGLFLYQGLLKALEGISPELGPTLDKLQLDVADFATTIWQQMEELGMAPALQPTQGAMPAFASAFQRRAGGVLVASHLQSFLEVSYRVLRHLAQP
modifications: conjugated to SPA-PEG 20000
B3: G-CSF variant K16/34/40R Q90K conjugated to SPA-PEG 20000 (ligand)
chain: TPLGPASSLPQSFLLRCLEQVRKIQGDGAALQERLCATYRLCHPEELVLLGHSLGIPWAPLSSCPSQALQLAGCLSQLHSGLFLYQGLLKALEGISPELGPTLDTLQLDVADFATTIWQQMEELGMAPALQPTQGAMPAFASAFQRRAGGVLVASHLQSFLEVSYRVLRHLAQP
modifications: conjugated to SPA-PEG 20000
B4: G-CSF variant K16/34/40R T105K S159K conjugated to SPA-PEG 12000 (ligand)
chain: TPLGPASSLPQSFLLRCLEQVRKIQGDGAALQERLCATYRLCHPEELVLLGHSLGIPWAPLSSCPSQALQLAGCLSQLHSGLFLYQGLLQALEGISPELGPTLDKLQLDVADFATTIWQQMEELGMAPALQPTQGAMPAFASAFQRRAGGVLVASHLQKFLEVSYRVLRHLAQP
modifications: conjugated to SPA-PEG 12000
B5: G-CSF variant K16/34/40R Q70K Q90K conjugated to SPA-PEG 12000 (ligand)
chain: TPLGPASSLPQSFLLRCLEQVRKIQGDGAALQERLCATYRLCHPEELVLLGHSLGIPWAPLSSCPSQALKLAGCLSQLHSGLFLYQGLLKALEGISPELGPTLDTLQLDVADFATTIWQQMEELGMAPALQPTQGAMPAFASAFQRRAGGVLVASHLQSFLEVSYRVLRHLAQP
modifications: conjugated to SPA-PEG 12000
B6: G-CSF variant K16/34/40R T105K S159K conjugated to SPA-PEG 20000 (ligand)
chain: TPLGPASSLPQSFLLRCLEQVRKIQGDGAALQERLCATYRLCHPEELVLLGHSLGIPWAPLSSCPSQALQLAGCLSQLHSGLFLYQGLLQALEGISPELGPTLDKLQLDVADFATTIWQQMEELGMAPALQPTQGAMPAFASAFQRRAGGVLVASHLQKFLEVSYRVLRHLAQP
modifications: conjugated to SPA-PEG 20000
B7: G-CSF variant K16/34/40R Q90K T105K S159K conjugated to SPA-PEG 12000 (ligand)
chain: TPLGPASSLPQSFLLRCLEQVRKIQGDGAALQERLCATYRLCHPEELVLLGHSLGIPWAPLSSCPSQALQLAGCLSQLHSGLFLYQGLLKALEGISPELGPTLDKLQLDVADFATTIWQQMEELGMAPALQPTQGAMPAFASAFQRRAGGVLVASHLQKFLEVSYRVLRHLAQP
modifications: conjugated to SPA-PEG 12000
B8: G-CSF variant K16/34/40R Q90K T105K S159K conjugated to SPA-PEG 20000 (ligand)
chain: TPLGPASSLPQSFLLRCLEQVRKIQGDGAALQERLCATYRLCHPEELVLLGHSLGIPWAPLSSCPSQALQLAGCLSQLHSGLFLYQGLLKALEGISPELGPTLDKLQLDVADFATTIWQQMEELGMAPALQPTQGAMPAFASAFQRRAGGVLVASHLQKFLEVSYRVLRHLAQP
modifications: conjugated to SPA-PEG 20000
B9: G-CSF variant K16/34/40R Q90K T105K conjugated to SPA-PEG 12000 (ligand)
chain: TPLGPASSLPQSFLLRCLEQVRKIQGDGAALQERLCATYRLCHPEELVLLGHSLGIPWAPLSSCPSQALQLAGCLSQLHSGLFLYQGLLKALEGISPELGPTLDKLQLDVADFATTIWQQMEELGMAPALQPTQGAMPAFASAFQRRAGGVLVASHLQSFLEVSYRVLRHLAQP
modifications: conjugated to SPA-PEG 12000
B10: non-conjugated hG-CSF (Neupogen®) (ligand)
chain: MTPLGPASSLPQSFLLKCLEQVRKIQGDGAALQEKLCATYKLCHPEELVLLGHSLGIPWAPLSSCPSQALQLAGCLSQLHSGLFLYQGLLQALEGISPELGPTLDTLQLDVADFATTIWQQMEELGMAPALQPTQGAMPAFASAFQRRAGGVLVASHLQSFLEVSYRVLRHLAQP

Molecular target: T1, human G-CSF receptor
Experiment: cell-based or functional assay

Point of comparison: B3, “EC50(% of hG-CSF) conjugated to SPA-PEG 20000” value 7 % of hG-CSF. Against it:
- B1 — lower, 1 % of hG-CSF
- B2 — lower, < 1 % of hG-CSF
- B6 — lower, 5 % of hG-CSF
- B8 — lower, < 1 % of hG-CSF

Point of comparison: B4, “EC50 (% of hG-CSF) conjugated to SPA-PEG 12000” value 6 % of hG-CSF. Against it:
- B5 — higher, 8 % of hG-CSF
- B7 — lower, 1 % of hG-CSF
- B9 — lower, 1 % of hG-CSF

Molecular target: T1, human G-CSF receptor
Experiment: cell-based or functional assay
Remark: another data set of the same source

B10 showed an EC50 of 0.03 nM.

Reference: patent US20030118612A1 (MAXYGEN, published 2003)
